Biological target: cerulean-tagged CaM (Cer-CaMWT) (UniProt P0DP23 1-149)
Test: FRET or BRET

B1: Venus-tagged CaV1.1 CI (Ven-CaV1.1 CI) (domain or fragment)
chain: not shown
Kd: ~2300 nM
